Measurements reported in the supplement of paper PMC9170038.

Columns and labels:
Details in all cases: FMN input: 0 or 200 uM; Eterna round: R93 (includes R88 designs)
MS2 coat protein [1] = assay: apparent KD of MS2 coat protein, switch ON state; designed switch direction (-1 OFF switch, 1 ON switch): 1; higher = weaker reporter binding
How it was run: (§1)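 For every design, apparent KD is the median of normalised binding-curve fits from its clusters. The RNA switches were transcribed on-chip from Illumina sequencing clusters and titrated with SNAP-549-labelled MS2 coat protein (twofold steps, 0.7 or 1.5 nM to 3 µM; 0.8–1.5 h to 10–20 min per step). Titrations used 100 mM Tris-HCl pH 7.5, 80 mM KCl, 4 mM MgCl2, without or with constant ligand.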

MS2 coat protein [2] = assay: apparent KD of MS2 coat protein, switch OFF state (with FMN for OFF switches, without FMN for ON switches); designed switch direction (-1 OFF switch, 1 ON switch): 1; higher = weaker reporter binding
How it was run: as §1

MS2 coat protein [3] = assay: apparent KD of MS2 coat protein, switch ON state; designed switch direction (-1 OFF switch, 1 ON switch): -1; higher = weaker reporter binding
How it was run: as §1

MS2 coat protein [4] = assay: apparent KD of MS2 coat protein, switch OFF state (with FMN for OFF switches, without FMN for ON switches); designed switch direction (-1 OFF switch, 1 ON switch): -1; higher = weaker reporter binding
How it was run: as §1

Sequence	apparent KD of MS2 coat protein (MS2 coat protein [1]) [µM]	apparent KD of MS2 coat protein (MS2 coat protein [2]) [µM]	apparent KD of MS2 coat protein (MS2 coat protein [3]) [µM]	apparent KD of MS2 coat protein (MS2 coat protein [4]) [µM]
AACAAACAUGAGGAUCACCCAUGUAAACAAACAUGAGGAUAUAUAACACAACAUCAACAGAUAGAAGGCAUAAAUA [JR_SS001_Sub1202]	0.0921	0.0848		
AAAAAAAAUGUGUAGGAUAUCAGUAAAAAUACAUGAGGAUCACCCAUGUUCAAAAAAAAAAAAACUGAGAAGGACGUGGAUGGUCC [Design 3]	0.0123	0.0111		
AAACAACAUGAGGAUCACCCAUGUCAAACAAAUCGAGGAUAUGGGCAGGAUUCUUCCUAACUAGAAGGCGAAAACA [Esmatidi]	0.164	0.0298		
AAAAUAAAAAGGUAGGAUAUGGGUAAAACUACAUGAGGAUCACCCAUGUAAUAAAAAGAAAAAAACCAGAAGGACCAAAAUAAAA [72%, More Wateronthemoon, 8]	0.0132	0.0347		
AUAUGAGCUAAUGAGGAUAUCCAUAAUAAGACAUGAGGAUCACCCAUGUAAACAAAACAAUAAUGGGAGAAGGCAUUAGCUCAAU [SS 2 M49]	0.0457	0.0588		
UACAGACAUGAGGAUCACCCAUGUAGAAUUAUGGGAGGAUAUACAAAGACGAGAGUCAGAGUAGAAGGCCUAGGAA [salish99-ss1-164]	0.024	0.0646		
GUUGAACAUGAGGAUCACCCAUGUCUCAACAGUCAAGGAUAUGGGUCAUGCAGAUGAAUACCAGAAGGUGAAUAAA [Zaorxe]	0.0158	0.0336		
AGGAGACAUGAGGAUCACCCAUGUGAGAAGAGGCGAGGAUAUCGAAAGAAAGAAGAGAAACGAGAAGGCGCGAGCC [salish99-SS1-032]	0.0281	0.0288		
AAAAACACGGUGCAGGAUAUAUUAAUAGUCACAUGAGGAUCACCCAUGUUCAUUUAUAUGAACGAGUAGAAGGGCGGUGAAAAAA [Mat - Same state - Malcolm Mod - D112]	0.172	0.148		
AAAUAAAUGACUCAGGAUAUAUCAUAGAAUACAUGAGGAUCACCCAUGUUUUAAUAACAUGUUUGGUAGAAGGGAGUCAAUAAAU [LROPPY Same State 2 - v05_deltaG=1.86]	0.0259	0.116		
AUGAGGAAGAGAGAGGAUAUCCAAAGGAAAACAUGAGGAUCACCCAUGUAAAAGGUAGGAAAUUGGGAGAAGGCUCAAGAGAGAG [salish99-ss2-065]	0.0234	0.0447		
CAGAGACAUGAGGAUCACCCAUGUAGGAUUAUGGGAGGAUAUACAAAGACGAGAGUCAGAGUAGAAGGCCUAGGAU [salish99-ss1-142]	0.0212	0.0527		
GAAAAACAUGAGGAUCACCCAUGUGUAAACACGGGAGGAUAUACAAAGACGUAAGUCAAAGUAGAAGGCCUAAAAG [Garnet 39]	0.0267	0.0965		
AAGAAACAUGAGGAUCACCCAUGUAAACUCGAGAGAGGAUAUCGUACAUGGAAGAUUCAACGAGAAGGCUCUAGAG [Same State 1.1a (Pariah 3, G boost at 31, GC 76/28)]	0.0238	0.0415		
ACAAACAAAAAAGAGGAUAUCCUAAAUAAAACAUGAGGAUCACCCAUGUAAAAAAUAAUAAAAUGGGAGAAGGCUUACAACAAAC [SS2 M 24]	0.0156	0.021		
AAAAAACAUGAGGAUCACCCAUGUCAAAAGACAUGAGGAUAUGUACAGACUUCGGUCUGUACAGAAGGCAUGUAAA [SS1 - 1015]	0.0246	0.273		
AAAAAACAUGAGGAUCACCCAUGUGAAAAUAUGGAAGGAUAUACCGAAAAAAAAAAAAAGGUAGAAGGUCUAAAAA [SS! 1 MT 4]	0.023	0.0323		
AGAAAACAUGAGGAUCACCCAUGUAGGAAUAUGGGAGGAUAUACAGAGACGAAAGUCAGAGUAGAAGGCCUAAGAA [salish99-SS1-088]	0.024	0.0967		
GAGGACAUAGUAUAGGAUAUAUGAAUAAUUACAUGAGGAUCACCCAUGUGCAUUUAUAUGCGAACAUAGAAGGGUGGUAGUUAUC [SameState2 Malc#32]	0.0416	0.037		
AAAAAACAUGAGGAUCACCCAUGUGCAAAAUUCGCAGGAUAUUCCUUUUUUAAAUGGGAGGGAGAAGGGUGUAAAA [Nob's Hobby 19 - Jieux - Same State 1]	0.0219	0.0345		
GGAGCCGGCACUGAGGAUAUUCAUAUUAAAACAUGAGGAUCACCCAUGUAGGCCAGAAGGCCUUGGGAGAAGGCAGGUCGGCCCG [Bibimaor]	0.0185	0.252		

Sequence	apparent KD of MS2 coat protein (MS2 coat protein [1]) [µM]	apparent KD of MS2 coat protein (MS2 coat protein [2]) [µM]	apparent KD of MS2 coat protein (MS2 coat protein [3]) [µM]	apparent KD of MS2 coat protein (MS2 coat protein [4]) [µM]
AACUCGUCAGGAUAUGCGCACAGAUAAUACGCUACACAAAUGCAGAAGGGACAUGAGGAUCACCCAUGUAAAUA [JR_Exc004_Sub504]			0.0426	0.0312
ACCAAUGGAGGAUAUACAUGAGGAUCACCCAUGUAUAACCUACAUAGGUGAAAAAAAUGUAGAAGGCCAUUGGA [EX3 233: Super Stable 33]			0.0312	0.0169
AAAAAUGGAGGAUAUACAUGAGGAUCACCCAUGUGUGACUAUACUAAGCGCUCCUCAGGUAGAAGGCCAAAAAA [Gilly Gone Silly 16 - Jieux - Exclusion 3]			0.0835	0.0995
AACUAGUCAGGAUAUACGAACAUGUCAAAAGACAUGAAGGGACAUGAGGAUCACCCAUGUAGAAGGGACUAGCA [74%, Web mod - With 2 less G's]			0.044	0.148
AAAAAGGCAGGAUAUACGAGUCAAAGAAAAGACAAAAGGAAACAUGAGGAUCACCCAUGUAGAAGGGCCAAAAA [Fiskers exclusion D2 62% 6]			0.0282	0.0167
AAAAAACAUGAGGAUCACCCAUGUGAGGAUAUGCAAAACCCAUAUAAAAAGGGAAAAAGUAGAAGGCACAAAAA [wbt round 1 mod 10]			0.0241	0.0286
GAAAAUCGAGGAUAUACAUGAGGAUCACCCAUGUCAAAAAAUGACUACACAAAAGAAAGUAGAAGGCGAUAAAG [Mat - Exclusion 3 - Mayanna mod - D130]			0.0288	0.0312
AAAAAACAUGAGGAUCACCCAUGUAAGGAUAUGCGAUGGAAAAUAAAAAUAAAACAUAGCAGAAGGUACACCAA [Amethyst 82]			0.0294	0.0282
AAAAAACAUGAGGAUCACCCAUGUGAGGAUAUGCAAAACCCAUAUAAAAAGGGAAAAAGCAGAAGGCGCAAAAA [Starry Exclusion 1.4 (wbt round 1 mod)]			0.0265	0.0242
AAAAUGUCAGGAUAUGUAGCAAAAGGUGAUCAAAAAAAGCUACAGAAGGGACAUGAGGAUCACCCAUGUAAAAA [Ex4: 935]			1.02	2.87
AAAGAUGCAGGAUAUACAUGAGGAUCACCCAUGUUAGACCUGAAAAGGGAAAAAGAAAGUAGAAGGGCAUAAAA [Ex 3 May 32]			0.0134	0.017
AGAAAACAUGAGGAUCACCCAUGUAAGGAUAUGCUGAAAAAACACUGGAAACAGUGCAGCAGAAGGUACAAAGA [Mat - Exclusion 1 - Eli mod - D99]			0.0221	0.0433
CUCAAGUGAGGAUAUCAGUAGUAAAAAAAUAAAAUUACUACUGAGAAGGCACAUGAGGAUCACCCAUGUUCCAA [EX4 342: Super Stable 42]			0.124	0.181
AACAAGACAGGAUAUACAUGAGGAUCACCCAUGUCACAACAAAGCAGCGCAACACAAAGUAGAAGGGUCAUGGA [Ruby 11]			0.0812	0.0826
AAGUCGUUAGGAUAUAUAUGGAUAUACAUUUAUGUAGAACUACAUGAGGAUCACCCAUGUAGAAGGAACGAAUA [AJ 56]			0.0243	0.0279
AACAGACAUGAGGAUCACCCAUGUGAGGAUAUCCCAAUCGAUAGAACUAGAAUGACAAGGAGAAGGCACAGCAA [JR_Exc001_Sub005]			0.0701	0.0701
AACAGUACAGGAUAUACAUGAGGAUCACCCAUGUGAAAAUUAAGUGGCGUACCACAAAGUAGAAGGGUACUGAA [Moding Maslow Revisited (73) 26]			0.0279	0.125
AACAGGAGAGGAUAUACAUGAGGAUCACCCAUGUAGGAAACAAGCAGAGUACCAAAAAGUAGAAGGCUCAUGGA [Ruby 32]			0.0281	0.0431
AAGGAUCGAGGAUAUACAUAGAUACAGAUACAUGUAGACGUACAUGAGGAUCACCCAUGUAGAAGGCGAUCAUA [AJ 27]			0.15	0.255
GGCUAGUCAGGAUAUACGAACAUGUCAAAAGACGUGAAGGGACAUGAGGAUCACCCAUGUAGAAGGGACUAGCA [salish99-ex2-12]			0.0315	0.183
AGUCAGAGAGGAUAUACAUGGAAAAAAAAAGUAAGAUCCCUACAUGAGGAUCACCCAUGUAGAAGGCUCUGACA [Ex2 Design 138: Sub-opt 2]			0.0275	0.0132
